Data set [1] deals with Saccharomyces cerevisiae. Kind of data set: protein stability index of tFT-peptide fusion in wild type (PSI (0-1 scale)); higher = more stable (slower turnover). Conditions: genetic background: wild type.
For data set [2], the system named is Saccharomyces cerevisiae. In words: protein stability index of tFT-peptide fusion in deletion strain of DAS1 (PSI (0-1 scale)); higher = more stable (slower turnover).
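Throughout, for protein stability index of tFT-peptide fusion in deletion strain of DAS1: PSI is a weighted mean of each variant's read distribution over the sorted stability bins, computed only for variants having over 10 reads in total.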
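Throughout, for protein stability index of tFT-peptide fusion in wild type: PSI derived as read-weighted mean over the 8 sorting bins, only variants exceeding 10 total reads kept, mCherry placed adjacent to the peptide and sfGFP distal.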

Turning to PSLDASFWRVVG, the values for the protein stability index with Saccharomyces cerevisiae [1] and with Saccharomyces cerevisiae [2] were 0.128 and 0.677, respectively.

PSLFASFWRVVG: the values for the protein stability index in the data set with Saccharomyces cerevisiae [1] and in the data set with Saccharomyces cerevisiae [2] were 0.109 and 0.694, respectively.

As for PSLPASFWRVVG, the results for the protein stability index in the data set on Saccharomyces cerevisiae [1] and in the data set with Saccharomyces cerevisiae [2] were 0.197 and 0.685, respectively.

As to PSLRASFWRVVG, the protein stability index came to 0.141 in the data set with Saccharomyces cerevisiae [1] and 0.688 in the data set with Saccharomyces cerevisiae [2].

Turning to PSRAASFWRVVG, the protein stability index turned out to be 0.149 in the data set on Saccharomyces cerevisiae [1] and 0.691 in the data set with Saccharomyces cerevisiae [2].

Take PSWAASFWRVVG: the protein stability index amounted to 0.154 with Saccharomyces cerevisiae [1] and 0.714 in the data set with Saccharomyces cerevisiae [2].

For the sequence PTLAASFWRVVG, the values for the protein stability index in the data set with Saccharomyces cerevisiae [1] and with Saccharomyces cerevisiae [2] were 0.162 and 0.703, respectively.

Take PVLAASFWRVVG: the protein stability index in the data set on Saccharomyces cerevisiae [1] was found to be 0.161; in the data set with Saccharomyces cerevisiae [2], 0.68.

With PYLAASFWRVVG, the protein stability index in the data set with Saccharomyces cerevisiae [1] worked out at 0.151; with Saccharomyces cerevisiae [2], 0.699.

With QVVYLSCVACIN, the protein stability index was 0.0122 in the data set on Saccharomyces cerevisiae [1] and 0.0307 in the data set on Saccharomyces cerevisiae [2].

For the sequence RCIQPLPVQFLN, the protein stability index stood at 0.0766 in the data set on Saccharomyces cerevisiae [1] and 0.572 with Saccharomyces cerevisiae [2].

As for RLICPLPVQFLN, the protein stability index in the data set with Saccharomyces cerevisiae [1] came out at 0.0408; in the data set with Saccharomyces cerevisiae [2] it was 0.562.

As to RLIQNLPVQFLN, the protein stability index with Saccharomyces cerevisiae [1] is 0.029; in the data set on Saccharomyces cerevisiae [2] it was 0.57.

RLIQPFPVQFLN: the protein stability index in the data set with Saccharomyces cerevisiae [1] is 0.09; in the data set with Saccharomyces cerevisiae [2], 0.778.

For RLIQPLCVQFLN, the protein stability index with Saccharomyces cerevisiae [1] is 0.0777; with Saccharomyces cerevisiae [2] it was 0.605.

Regarding RLIQPLGVQFLN, the protein stability index was determined as 0.0859 with Saccharomyces cerevisiae [1] and 0.66 in the data set on Saccharomyces cerevisiae [2].

As to RLIQPLPCQFLN, the results for the protein stability index in the data set with Saccharomyces cerevisiae [1] and in the data set with Saccharomyces cerevisiae [2] were 0.0496 and 0.587, respectively.

For RLIQPLPVEFLN, the protein stability index in the data set on Saccharomyces cerevisiae [1] was 0.0996; in the data set with Saccharomyces cerevisiae [2], 0.586.

With RLIQPLPVQALN, the protein stability index with Saccharomyces cerevisiae [1] worked out at 0.36; in the data set on Saccharomyces cerevisiae [2] it was 0.569.

Turning to RLIQPLPVQDLN, the protein stability index in the data set with Saccharomyces cerevisiae [1] was 0.6; in the data set with Saccharomyces cerevisiae [2] it was 0.576.

As for RLIQPLPVQFCN, the protein stability index in the data set with Saccharomyces cerevisiae [1] was found to be 0.195; with Saccharomyces cerevisiae [2], 0.681.

As to RLIQPLPVQFFN, the protein stability index was 0.0467 in the data set on Saccharomyces cerevisiae [1] and 0.563 with Saccharomyces cerevisiae [2].

As for RLIQPLPVQFLD, the protein stability index stood at 0.633 in the data set on Saccharomyces cerevisiae [1] and 0.573 in the data set with Saccharomyces cerevisiae [2].

For the sequence RLIQPLPVQFLNR, the protein stability index amounted to 0.659 with Saccharomyces cerevisiae [1] and 0.669 in the data set on Saccharomyces cerevisiae [2].

On to RLIQPLPVQFLQ, for which the protein stability index was found to be 0.447 in the data set on Saccharomyces cerevisiae [1] and 0.647 in the data set with Saccharomyces cerevisiae [2].

On to RLIQPLPVQFNN, for which the protein stability index in the data set with Saccharomyces cerevisiae [1] turned out to be 0.554; in the data set on Saccharomyces cerevisiae [2] it was 0.6.

As for RLIQPLPVQVLN, the protein stability index in the data set on Saccharomyces cerevisiae [1] was 0.204; in the data set on Saccharomyces cerevisiae [2] it was 0.46.

On to RLIQPLPVQYLN, for which the protein stability index with Saccharomyces cerevisiae [1] was determined as 0.0462; with Saccharomyces cerevisiae [2], 0.661.

In the case of RLIQPLPVSFLN, the figures for the protein stability index in the data set on Saccharomyces cerevisiae [1] and with Saccharomyces cerevisiae [2] were 0.262 and 0.593, respectively.

In the case of RLIQPSPVQFLN, the protein stability index with Saccharomyces cerevisiae [1] was 0.0855; with Saccharomyces cerevisiae [2], 0.683.

On to RLIQQLPVQFLN, for which the protein stability index with Saccharomyces cerevisiae [1] is 0.0315; in the data set with Saccharomyces cerevisiae [2], 0.602.

RLIRPLPVQFLN: the protein stability index in the data set on Saccharomyces cerevisiae [1] turned out to be 0.0343; in the data set with Saccharomyces cerevisiae [2] it was 0.593.

For the sequence RLQQPLPVQFLN, the results for the protein stability index in the data set with Saccharomyces cerevisiae [1] and with Saccharomyces cerevisiae [2] were 0.0653 and 0.574, respectively.

Take RLYQPLPVQFLN: the protein stability index in the data set with Saccharomyces cerevisiae [1] worked out at 0.068; in the data set with Saccharomyces cerevisiae [2] it was 0.586.

For VRGACGGWRLVG, the protein stability index in the data set with Saccharomyces cerevisiae [1] was 0.143; with Saccharomyces cerevisiae [2], 0.677.

On to VRGAGGGWRLVG, for which the protein stability index with Saccharomyces cerevisiae [1] was 0.209; in the data set with Saccharomyces cerevisiae [2], 0.663.

For the sequence VRGARGGWRLVG, the protein stability index with Saccharomyces cerevisiae [1] worked out at 0.273; in the data set with Saccharomyces cerevisiae [2], 0.686.

As for VRGAVEGWRLVG, the protein stability index in the data set on Saccharomyces cerevisiae [1] was found to be 0.19; with Saccharomyces cerevisiae [2], 0.692.

Take VRGAVFGWRLVG: the protein stability index with Saccharomyces cerevisiae [1] was determined as 0.149; with Saccharomyces cerevisiae [2] it was 0.678.

As for VRGAVGFWRLVG, the protein stability index in the data set with Saccharomyces cerevisiae [1] was found to be 0.16; in the data set with Saccharomyces cerevisiae [2], 0.687.

As to VRGAVGGHRLVG, the protein stability index with Saccharomyces cerevisiae [1] came to 0.675; in the data set on Saccharomyces cerevisiae [2], 0.703.

Take VRGAVGGWLLVG: the protein stability index turned out to be 0.156 in the data set with Saccharomyces cerevisiae [1] and 0.668 in the data set on Saccharomyces cerevisiae [2].

For the sequence VRGAVGGWRAVG, the values for the protein stability index in the data set with Saccharomyces cerevisiae [1] and in the data set with Saccharomyces cerevisiae [2] were 0.365 and 0.67, respectively.

Regarding VRGAVGGWRLAG, the protein stability index worked out at 0.233 in the data set on Saccharomyces cerevisiae [1] and 0.695 with Saccharomyces cerevisiae [2].

VRGAVGGWRLHG: the values for the protein stability index with Saccharomyces cerevisiae [1] and with Saccharomyces cerevisiae [2] were 0.226 and 0.662, respectively.

Turning to VRGAVGGWRLPG, the protein stability index came out at 0.683 with Saccharomyces cerevisiae [1] and 0.681 in the data set on Saccharomyces cerevisiae [2].

Regarding VRGAVGGWRLVGT, the protein stability index in the data set with Saccharomyces cerevisiae [1] came to 0.678; in the data set with Saccharomyces cerevisiae [2], 0.689.

For the sequence VRGAVGGWRLVR, the protein stability index in the data set with Saccharomyces cerevisiae [1] was 0.651; in the data set on Saccharomyces cerevisiae [2], 0.682.

Turning to VRGAVGGWRLYG, the figures for the protein stability index with Saccharomyces cerevisiae [1] and in the data set with Saccharomyces cerevisiae [2] were 0.239 and 0.686, respectively.

Regarding VRGAVGWWRLVG, the protein stability index turned out to be 0.163 with Saccharomyces cerevisiae [1] and 0.665 with Saccharomyces cerevisiae [2].

Consider VRGAVGYWRLVG, for which the protein stability index in the data set with Saccharomyces cerevisiae [1] came to 0.152; in the data set with Saccharomyces cerevisiae [2], 0.668.

On to VRGAVNGWRLVG, for which the protein stability index in the data set on Saccharomyces cerevisiae [1] is 0.157; with Saccharomyces cerevisiae [2] it was 0.694.

Turning to VRGAVRGWRLVG, the protein stability index with Saccharomyces cerevisiae [1] worked out at 0.146; in the data set with Saccharomyces cerevisiae [2], 0.7.

For the sequence VRGAVYGWRLVG, the protein stability index in the data set on Saccharomyces cerevisiae [1] is 0.141; in the data set on Saccharomyces cerevisiae [2], 0.666.

Regarding VRGRVGGWRLVG, the protein stability index was 0.121 in the data set on Saccharomyces cerevisiae [1] and 0.675 in the data set with Saccharomyces cerevisiae [2].

VRIAVGGWRLVG: the protein stability index turned out to be 0.11 in the data set with Saccharomyces cerevisiae [1] and 0.68 with Saccharomyces cerevisiae [2].

Regarding VRWRVGLWRGAS, the figures for the protein stability index in the data set with Saccharomyces cerevisiae [1] and in the data set on Saccharomyces cerevisiae [2] were 0.209 and 0.648, respectively.

With VSMRWTFRYWVN, the protein stability index came to 0.0543 with Saccharomyces cerevisiae [1] and 0.509 in the data set with Saccharomyces cerevisiae [2].

For the sequence WKILRQKMNHQN, the protein stability index is 0.244 with Saccharomyces cerevisiae [1] and 0.678 in the data set on Saccharomyces cerevisiae [2].

YRGAVGGWRLVG: the figures for the protein stability index in the data set on Saccharomyces cerevisiae [1] and with Saccharomyces cerevisiae [2] were 0.218 and 0.664, respectively.

The record behind these values is the supplement of paper PMC10724198.
